Reference: US20210255185A1

What was measured:
[1] = biological target: methyl cytosine binding protein 2 (MeCP2); assay: immunofluorescence, cells transduced with AAV9-MECP2 at MOI 18750, well 1 (background level)
[2] = biological target: methyl cytosine binding protein 2 (MeCP2); assay: immunofluorescence, cells transduced with AAV9-MECP2 at MOI 150000, well 1 (background level)
[3] = biological target: methyl cytosine binding protein 2 (MeCP2); assay: immunofluorescence, cells transduced with AAV9-MECP2 at MOI 18750, well 2 (background level)
[4] = biological target: methyl cytosine binding protein 2 (MeCP2); assay: immunofluorescence, cells transduced with AAV9-MECP2 at MOI 300000, well 1 (background level)
[5] = biological target: human survival motor neuron (SMN1) protein (human) (UniProt Q16637); assay: immunofluorescence, fixed/permeabilised mTD-NPC-delta7 cells transduced with AAV9-SMN1 at MOI 300000, well 2
Chain of UniProt Q16637 (Q16637 2-294 limits assumed): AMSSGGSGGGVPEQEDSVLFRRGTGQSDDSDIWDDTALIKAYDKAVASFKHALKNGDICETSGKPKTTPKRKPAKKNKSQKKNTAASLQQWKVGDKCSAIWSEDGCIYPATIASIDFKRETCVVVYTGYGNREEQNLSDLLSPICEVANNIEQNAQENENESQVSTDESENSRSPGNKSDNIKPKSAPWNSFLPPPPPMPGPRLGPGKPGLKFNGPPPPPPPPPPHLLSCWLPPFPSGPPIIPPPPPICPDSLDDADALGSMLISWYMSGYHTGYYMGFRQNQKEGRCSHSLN

[6] = biological target: methyl cytosine binding protein 2 (MeCP2); assay: immunofluorescence, cells transduced with AAV9-MECP2 at MOI 300000, well 2 (background level)
[7] = biological target: methyl cytosine binding protein 2 (MeCP2); assay: immunofluorescence, cells transduced with AAV9-MECP2 at MOI 75000, well 2 (background level)
[8] = biological target: human survival motor neuron (SMN1) protein (human) (UniProt Q16637); assay: immunofluorescence, cells transduced with AAV9-SMN1 at MOI 75000, well 2
[9] = biological target: human survival motor neuron (SMN1) protein (human) (UniProt Q16637); assay: immunofluorescence, cells transduced with AAV9-SMN1 at MOI 18750, well 2
[10] = biological target: human survival motor neuron (SMN1) protein (human) (UniProt Q16637); assay: immunofluorescence, cells transduced with AAV9-SMN1 at MOI 18750, well 1
[11] = biological target: human survival motor neuron (SMN1) protein (human) (UniProt Q16637); assay: immunofluorescence, cells transduced with AAV9-SMN1 at MOI 37500, well 1
[12] = biological target: human survival motor neuron (SMN1) protein (human) (UniProt Q16637); assay: immunofluorescence, cells transduced with AAV9-SMN1 at MOI 150000, well 2
[13] = biological target: methyl cytosine binding protein 2 (MeCP2); assay: immunofluorescence, cells transduced with AAV9-MECP2 at MOI 37500, well 2 (background level)
[14] = biological target: methyl cytosine binding protein 2 (MeCP2); assay: immunofluorescence, cells transduced with AAV9-MECP2 at MOI 75000, well 1 (background level)
[15] = biological target: human survival motor neuron (SMN1) protein (human) (UniProt Q16637); assay: immunofluorescence, fixed/permeabilised mTD-NPC-delta7 cells transduced with AAV9-SMN1 at MOI 300000, well 1
[16] = biological target: human survival motor neuron (SMN1) protein (human) (UniProt Q16637); assay: immunofluorescence, cells transduced with AAV9-SMN1 at MOI 150000, well 1
[17] = biological target: human survival motor neuron (SMN1) protein (human) (UniProt Q16637); assay: immunofluorescence, cells transduced with AAV9-SMN1 at MOI 37500, well 2
[18] = biological target: human survival motor neuron (SMN1) protein (human) (UniProt Q16637); assay: immunofluorescence, cells transduced with AAV9-SMN1 at MOI 75000, well 1
[19] = biological target: methyl cytosine binding protein 2 (MeCP2); assay: immunofluorescence, cells transduced with AAV9-MECP2 at MOI 150000, well 2 (background level)
[20] = biological target: methyl cytosine binding protein 2 (MeCP2); assay: immunofluorescence, cells transduced with AAV9-MECP2 at MOI 37500, well 1 (background level)

## mouse monoclonal anti-SMN antibody (Clone 2B1)
[1]
  IFI-C (integrated fluorescent intensity per cell): 720000
[2]
  IFI-C (integrated fluorescent intensity per cell): 886000
[3]
  IFI-C (integrated fluorescent intensity per cell): 759000
[4]
  IFI-C (integrated fluorescent intensity per cell): 867000
[5]
  IFI-C (integrated fluorescent intensity per cell): 3.27e+06
[6]
  IFI-C (integrated fluorescent intensity per cell): 875000
[7]
  IFI-C (integrated fluorescent intensity per cell): 860000
[8]
  IFI-C (integrated fluorescent intensity per cell): 2.46e+06
[9]
  IFI-C (integrated fluorescent intensity per cell): 1.51e+06
[10]
  IFI-C (integrated fluorescent intensity per cell): 1.46e+06
[11]
  IFI-C (integrated fluorescent intensity per cell): 1.87e+06
[12]
  IFI-C (integrated fluorescent intensity per cell): 3.02e+06
[13]
  IFI-C (integrated fluorescent intensity per cell): 817000
[14]
  IFI-C (integrated fluorescent intensity per cell): 837000
[15]
  IFI-C (integrated fluorescent intensity per cell): 3.43e+06
[16]
  IFI-C (integrated fluorescent intensity per cell): 2.87e+06
[17]
  IFI-C (integrated fluorescent intensity per cell): 1.86e+06
[18]
  IFI-C (integrated fluorescent intensity per cell): 2.34e+06
[19]
  IFI-C (integrated fluorescent intensity per cell): 839000
[20]
  IFI-C (integrated fluorescent intensity per cell): 809000
